Paper PMC9867944 (2023)

Biological target: human PD-1 protein (Acro biosystems) (human, UniProt Q15116 25-170)
Assay: SPR

Sequence of human PD-1 protein (Acro biosystems) (Q15116 25-170): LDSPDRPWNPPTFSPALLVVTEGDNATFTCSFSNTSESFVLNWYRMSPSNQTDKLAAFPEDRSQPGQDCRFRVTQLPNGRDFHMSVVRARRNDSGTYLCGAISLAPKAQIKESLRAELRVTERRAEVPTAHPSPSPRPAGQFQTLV

- koff: 0.00178 s⁻¹
B1: anti-PD-1 Nb C12-Fc (Fc fusion)
chain: QVQLQELGETRCRHGGSLRLSCKVSGYTQRSYCLGWLRQAPGNEREAVAVLQHSGNFRHYADSVQGRFVISQDYTDNTVYLAMNNLKSEDAAMYYCAAVGLRVSQFNYWGQGTQVTVSS
